Measured values from the DeepSol protein solubility set.

Test: soluble on expression in E. coli; label from the status in PepcDB or PDB records

Sequence	soluble on expression in E. coli
MVDIANEVGASESAIPPLKMLLLEGARQAALEAGLQNNSGILADTTFGQQALNDVTGQGWWIGRPVEMPGSYPLKLEHGDIGSQLVSWPQEHVVKCLVFYHPLDAESVRLEQEALIDEVYRACCQSGHDLLLEVILPRDAADQNEQYYPQIVERFYQLGILPDWWKLPPLSPDRWREISQHIEHYDPECRGILILGLDAPESELKSGFAAAADMPWVKGFAVGRTIFGEPSRQWLGGQLNDEQLIATVKQKYRMLIDYWREYRPAR	not soluble
MVDYHYFKSKLNHFYGRYVGYNQRPVFFDIDQTFPELNHITRHFPDIKREFENVQANVKEFPRYHDIDPGESAISNTTEKNWNVFMLYLLGYQLKEARLLCPELCNLLEGIPHLIQAFFSILEPGKSIPLHEGPYIGYLRYHLGIHVPQNNPPQILVNNQTYTWKEGEAVLFDDSWPHEVRNTSDDYRAVLIIDVLRPMPFLPQLVNQFVTHVIARYFYGRKVMKRAMQYGGEVKPLAL	not soluble
MVELCELHMMPEEDQWPDDIDARIAALNFCGEDSMLFESVDPSVSTDSLDSQQFRERCQMKKEDFQLAFADSGHWQSGINDNLTTWGRIRTSEPLDERTASAPDVWNVKRSDSARSPNRPNSLIANFVSGDATRFVDVNDNEIREANEEIIRKDRWRRDSARRCSSGGQNQKRTFADILEKNVTAPTSMAITSSDNEKPPKLDFLAMHHEMPSLCESFTASFRDAIIKMQKCEPLPSITSTNDFPLFFQEDSPDSGLGCSGPSHIEDWQSLSVLLPKHVAEACSFFKSNTQLLTSSTSKTAPQTSTNIVSNCIDRRISGISASANEACRTCYRVRRRIHPPVWAQTAQSKTVLCDCASTPTDTNFSFAPTTSTTRHQLRAKELSIVGLPIYAAKRTLVENVVEGVAAISRGDGSDLLVIAMRCLIEDGLQENVSAWTMIQTVTSKGPATKDVHSIVKQLEECSKTDNVKVEIFFEELIRENSLDCWLCYIVLKEKVLKTLYSENAFLLSASSEYRTLLWRMVDSLSLLPVIEARSDSVHQQFKSMQQWGGASRIASDSRVPKSSSFPARLSTAPSRRSRIPLSTSRISISSTTSTPRSARSPSTTSRIRVASIMGDFTLANFSLSDGEKVSVLSTRGGLARCVRLTTSHSKINNGVIPIEHLLFQ	not soluble
MVELLAPARDLSGLITAFNNGADSVYCGLKEMSMRATAKNFERNELIEGINFAHDADKRVYLCTNTVVYEDDILNLNEILEFAKSAEVDAIIVNDIGAMVTAKELGLEVHVSVQNNITNSKTAEFFSKFAKRVVLSRELTLNQIKRIKENLKVNKVDLELEGFIHGALCTAMSGRCYLSSYLFNRNANCGDCLQPCRRSWKLVNEHADGTHELISEGKYLLSPKDLCMIEHIPEMIDVFDCFKIEGRAKNVDYVMRATKTYREAIDSVVDGTYEEKLPIFKKELDKIYNREYDTGFYFRDLTCNHDLQYEFEGNVSPYKKIEVGKVVNYFKKVDVAEITLIDDLKVGDSVLIIGPTTGCIEEKIESMQVEGENITTAKKGQNVGIKLENLVRENDKVYILKED	not soluble
MVENIPLAEEEHNKWHQDAVSLHLEFGIPRTAAEDIVQQCDVCQENKMPSTLRGSNKRGIDHWQVDYTHYEDKIILVWVETNSGLIYAERVKGETGQEFRVQTMKWYAMFAPKSLQSDNGPAFVAESTQLLMKYLGIEHTTGIPWNPQSQALVERTHQTLKNTLEKLIPMFNAFESALAGTLITLNIKRKGGLGTSPMDIFIFNKEQQRIQQQSKSKQE	soluble
MVENVKIIRKKIKNMYLVVNPDCSVVVKAPVHVSDEYINSFIKKKESWIKKHLENFESLNSKSVAKKYIDGELFKYLGNEYILKVYPSKKEYLEISDNFFNLYVLETNDFEKKKKIIEKFYRKRAEIELFEIFKSNYKVVTEKMPDFSVRKMKKRWGSCSFHKNKIILNERLIEKSKDCIEYVVFHELAHLRYPNHSKDFYNYLTELMPEWKVKKLKLNERHLEHHHHHH	soluble
MVEQCPALKSRIKPMLSQKRLVYKPLGSFYQVLSAEAYTKHGLNVHGVVFDELHAQPNRDLYDVMLHGSGDARKQPLFFLITTAGTDRNSICWEVHQKAEDILQGRKIDPTFYPVIYSASDTDDWTSEKVWRKVNPSLGITVDIEKLRVACENAKQNPAEENLFRQLRLNQWVKQSVRWMPMDKWDKCAFPVDAEKLRGRTCYGGLDLSSTTDITAFVLVFPPLDESDKYQILTFFWIPEENIDQRVRRDHVPYDVWERQGFLYTTEGNVVHYGFIETFIEELGMKYNIKEIAFDRWGAIQMTQNLEALGFTVVPFGQGFKDMSPPTKELMKLTLEERIAHGGHPVLRWMMDNIYVKTDPAGNIKPDKEKSTERIDGAVALIMALDRALRHDGDERNGSIYDERGILFL	soluble
MVESWALTTPPIDIVNQYLFFIKRKTNYMATYYYALASQKFLLEEEPFEEVLKERRRDYGEKNKEIDFWQVIQPAFLNAPELAEAKAKAPEKNVAIVSTNKSFIVWVKLRLEYVLTGEFEAPSDAIPDPLASLDLEHHHHHH	not soluble
MVGQIAKEMGLRAYIVGGVVRDILLGKEVWDVDFVVEGNAIELAKELARRHGVNVHPFPEFGTAHLKIGKLKLEFATARRETYPRPGAYPKVEPASLKEDLIRRDFTINAMAISVNLEDYGTLIDYFGGLRDLKDKVIRVLHPVSFIEDPVRILRALRFAGRLNFKLSRSTEKLLKQAVNLGLLKEAPRGRLINEIKLALREDRFLEILELYRKYRVLEEIIEGFQWNEKVLQKLYALRKVVDWHALEFSEERIDYGWLYLLILISNLDYERGKHFLEEMSAPSWVRETYKFMKFKLGSLKEELKKAKENYEVYRLLKPLHTSVLLLLMLEEELKEKIKLYLEKLRKVKLPKEKIEELKKQGLKGKELGERIEELKREIMNKIKLAAALE	soluble
MVHPALEFSDCYSDSPDFRERLKCYENELEKTNKFLKDVIKDGNNVINTFKEYSLAVQKFSQTLQSFQFDFIGDTLTDDEMNIAESFREFAGLLQDVEEARMMLVQNASDLLIKPLEKFRKEQIGVTKERRKKFEKESEKYYSQLDKHVNLSSKKKETQLQEADEQLDKERQAFYESSVEYVYQIQQVQEKKKFDVVEPVLAFLQSILTLNNLTVEMYTFRNKGTKCNTGEIPFQKVQFCTIQVDISTFMVHFCTFKLYFCTFKIP	not soluble
MVIATDDLETTCPNCNGSGREEPEPCPKCLGKGVILTAQGSTLLHFIKKHIHE	soluble
MVIEESGNESEASVAPKRRRAPKGDMRRKALLDAATVVFARDGYSSASMREVALLAGITTVGLLHHFPNKEALLSALLERRDQRVTSRFQDMVTELTLDGFLKFLKLSMSFSVENADECQAALLMNTESLSPSHPACSWHRERFQMTHEHARGHLNALIEAGEVRADINVKALAQEIFSVMDGLQIQWLRSPDDVDVMAVFEVYVQRLGRDIKAHP	not soluble
MVKFLRDLVKIPGESAEEGNKIARAKAEMEKLGFDKIDIDPQGNLLGYMGSGEKLIAFDGHMDTVGIGEMSNWKFDPYDGYETETEIGGRGTSDQEGGIVSAIYGAKIMKDLGLLSEKYTALVTVTVQEEDCDGLCWQYIIKEDGIRPEFVVSTEPTDGGIYRGQRGRMEIKVDVKGVSCHGSAPERGDNAIYKMADILQDVRALNNNGDTESTAIRGLVRMLDPKYNPEWQEARFLGRGTVTVSQIFHSSPSRCAVADGCTVSLDRRMTAGETWESCLEEIRNLPAVKKYGDDVTVSMYNYDRPSYTDLTYEIECYFPTWVIPENHDVTKALMETHKNLYGETRKGSVETVEMREERPLLDKWTFSTNGVSIMGRNGIPCIGFGPGAEAQAHAPNEKTWKDDLVRCAAVYAALPTVYCG	not soluble
MVKFMAIGTPLLKGSIKFLLLGSGELGKEVVIEAQRLGIECIAVDRYQNAPAMQVAHKSYVIDMKDYDALMAIIEREEPDYIVPEIEAINTDALIDAEKMGYTVIPTAEATKITMNRELIRRLAAEKLGLKTAKYEFADSLEELRDAVEKLGLPCVVKPIMSSSGKGQSVVRSEEDIEKAWKIAKEGARGIGNRVIVEEFINFDYEITLLTARTAEGTKFCEPIGHVQIDGDYHESWQPHNMSAELKEQAQDIAKKVTDALGGYGIFGVELFVKGDEVIFSEVSPRPHDTGMVTMITQEMSEFEIHVRAILGLPVSTKLIHPGASHVIKAEINKYAPKYHIEDALKVPNTKLRLFGKPNAKVGRRMGVALAYADSVEKARELAEKCAHAVRIE	soluble
MVKHIWDSERAAQLPKGVEELVYRSNLIGSDRTVCNWGGGNTSMKTTEKDFRGREIEVMWVKGSGSDLATMKAHNFSGLKLDDIRPLIKRDQMPDEEMVDYLSHCMIDSKHPRPSIETLLHAFLPYKHVDHTHPDAIISICCADNGKQIAEDIYGNRFVWVPYVRPGFTLSKMIAEGVANNPHAELVLMEKHGLVTWGETSETCYQKTISIIQEAEQYINDRINQHEVFGGKRYQPLPEDKRKQILAGIMPVIRGAVSEEKKMILSYDDHDDVLEFVNSVQAPALSQIGAACPDHLVHTKRVPLYIDWNPETQDVHKLADLIKSGVETFTSEYQAYFTRNQQDGDQIFESAPRVILIPGIGMVNTGKSYAMSKVSGALYRRAIAVMKGATALGQFVSLHENESYHVEYWPLELYKLTLAPPEAEFSRKVALITGGAGGIGSAACRRFAAEGGHVIVADLNIEGAQKIAGEINDAYGKGRAMAVKMDVTKEEDVQSAFERAALAYGGIDIVVNNAGLATSSPFDETSLKEWNLNMNVLGTGYFLVAREAFKQMKHQNRGGSMVFVGSKNSVYAGKNASAYSSVKALETHLARCIAAEGGEFGIRVNSVLPDAVLQGSAIWGSSWREERAAAYGIEPDQLEEHYRKRTALLVNIYPEDIAEAIAFFASSKAEKTTGCMITVDGGVPAAFTR	not soluble
MVKLFIGNLPREATEQEIRSLFEQYGKVLECDIIKNYGFVHIEDKTAAEDAIRNLHHYKLHGVNINVEASKNKSKASTKLHVGNISPTCTNQELRAKFEEYGPVIECDIVKDYAFVHMERAEDAVEAIRGLDNTEFQGKRMHVQLSTSRLRTAPGMGDQSGCYRCGKEGHWSKECPVDRTGRVADFTEQYNEQYGAVRTPYTMGYGESMYYNDAYGALDYYKRYRVRSYEAVAAAAAASAYNYAEQTMSHLPQVQSTTVTSHLNSTSVDPYDRHLLPNSGAAATSAAMAAAAATTSSYYGRDRSPLRRAAAMLPTVGEGYGYGPESELSQASAATRNSLYDMARYEREQYVDRARYSAF	soluble
MVKNGRDPPERNFYCTEKEETAPPLMNIFDDFKSQIEREIMTIFLKTAYESLLSIAISTEIIVPEDETRSLEKEVIKLMKLMKLMNLLEPLGNRVSRLMGLVRNAEEHRERIVKRNQESDVREIFKIAASRTKTRFHKALQKESSSSSMKWGFTEAKDEVLSLGIRLTHALIKLTLLRVKKNDREKQLLLRDWIFDESYEKQSALMYLLDYLLYKAEEFAASVVVEESGNDHHRQHILEEDRIGDDILTRISEAIFILQLLAMNLSRNVLTERDLIATNDQLLRCVRDVKFVESTIVVLMKGRSLKLKHKGKQSLLMKERTETIFWAKVNAELNKCWGESFWKYVEAARHLEAVVSSQQIVYTLCKLFVFGFES	not soluble
MVKVGYIQMEPKILELDKNYSKAEKLIKEASKEGAKLVVLPELFDTGYNFESREEVFDVAQQIPEGETTTFLMELARELGLYIVAGTAEKSGNYLYNSAVVVGPRGYIGKYRKIHLFYREKVFFEPGDLGFKVFDIGFAKVGVMICFDWFFPESARTLALKGAEIIAHPANLVMPYAPRAMPIRALENRVYTITADRVGEERGLKFIGKSLIASPKAEVLSIASETEEEIGVVEIDLNLARNKRLNDMNDIFKDRREEYYFR	soluble
MVLALITLVVSAFLIPEVLADPCGDSNWRYFPQTNSCYKLIDENLPWTIAEFKCLFQGAHHVSIDSPEENQFVHELSRWSEIWTGAAFFGKDQHYVNSDGSRYGNFENWKDGRKPPMNRARRCIKMDGNGEWFQSCCKKKTFTICEKKAAYSASSYSGSNNSVNGFRFMRHRS	not soluble
